According to publication PMC7504102:

Molecular target: unfused negative control SGFP2
Assay: pull-down; SGFP2-fused proteins held on protein G magnetic beads via anti-GFP pAb; incubated with Nluc-ALG-2 (300 ng/mL) in buffer HKM, 0.2% Nonidet P-40, 0.1% gelatin, 100 μM CaCl2, 2 h, 4 °C; bound luciferase activity relative to Sec31A-p (100%)

Chain of nanoluciferase (NanoLuc, Nluc)-fused ALG-2 (O75340 whole entry, the tested form may be a part): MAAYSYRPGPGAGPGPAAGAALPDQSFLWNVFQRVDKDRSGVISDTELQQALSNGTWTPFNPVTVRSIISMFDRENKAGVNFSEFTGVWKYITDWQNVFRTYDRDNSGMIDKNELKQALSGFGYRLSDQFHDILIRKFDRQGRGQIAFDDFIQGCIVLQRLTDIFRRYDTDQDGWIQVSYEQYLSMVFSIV

- binding activity relative to Sec31A-p (100%): 0.18%
Substance: nanoluciferase (NanoLuc, Nluc)-fused ALG-2 (from UniProt O75340 1-191) (natural protein)
